In the supplement of paper PMC10567573 one finds protein stability index data, which are given here for 72 sequences.

± gives the standard deviation.

The series is described as follows: protein stability index of a GFP-peptide fusion (GPS, HEK-293T) (PSI 1-6); higher = more stable.
[1] abbreviates: treatment: DMSO, c terminus: a fixed tail appended.
The mark [2] stands for this setting: treatment: MLN4924 1 uM, 8 h, c terminus: a fixed tail appended.
Setting [3] is: treatment: DMSO, c terminus: native.
Setting [4] is: treatment: MLN4924 1 uM, 8 h, c terminus: native.
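Also: 24-mer peptide tiles fused after GFP, lentivirally expressed, FACS-sorted into six equal bins by GFP/DsRed ratio, decoded by Illumina sequencing, PSI is the read-weighted mean bin number.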

EDQVPALEAPEDIGSTSESKDWEE [MIA2]: the protein stability index reads like this: under setting [1], 5.8 ± 0.12; under setting [2], 5.71 ± 0.27.
Turning to EDQYIFIHDALLEAVTCGNTEVPA [PTPRD], the protein stability index came out at 3.1 ± 0.32 under setting [1] and 3.01 ± 0.31 under setting [2].
The like results for EEEAASPEGKRVPKRLRCWEEEED [FANCE] were, in that order, 5.4 ± 0.42 and 5.38 ± 0.21.
On to EEFPKREDQEGSPPETSLPYKWVV [MYBL2], for which the protein stability index is 3.83 ± 0.33 under setting [1] and 3.99 ± 0.41 under setting [2].
For EEHSLEQVQSMVVGEVLKDIETAC [SPDEF], in that order: 4.8 ± 0.26 and 4.85 ± 0.091.
Regarding EEIKTWGTVFQELNKLYPTHACRE [TPH1], the protein stability index by setting is: under setting [1], 2.95 ± 0.23; under setting [2], 3.02 ± 0.28.
For EEKRRREEEERLRREEEERRRIEE [ACBD3], in that order: 5.53 ± 0.29 and 5.49 ± 0.28.
The like results for EEPRPSRPRYKADVPDLQSVCSCT [KCNK9] were, in that order, 4.62 ± 0.13 and 4.55 ± 0.19.
For EERASLAGNRNSMVIHIPEEPRPS [KCNK9], the protein stability index reads like this: under setting [1], 4.82 ± 0.13; under setting [2], 4.94 ± 0.38.
The like results for EESRFCDAHLVLDGEEIPVQKNIL [GAN] were, in that order, 4.73 ± 0.22 and 4.68 ± 0.073.
The like results for EETGSRFHNCLIQLYCEKVQGLMK [VPS39] were, in that order, 2.48 ± 0.45 and 2.45 ± 0.5.
The like results for EEVKTPEEEMRSHYVAQTGILWLL [GAGE1] were, in that order, 2.11 ± 0.31 and 2.44 ± 0.49.
As for EFSVPFTEMKLRPRNFRSPAGGG [TNXB], the protein stability index stood at 3.4 ± 1.1 under setting [3] and 3.09 ± 1.1 under setting [4].
For the sequence EGVIDSSDKEIVAEAERLDVKAMG [EIF5], the protein stability index is, setting by setting: under setting [1], 5.34 ± 0.12; under setting [2], 5.35 ± 0.15.
Turning to EIENVKKQASNLETAIADAEQRGD [KRT71], the protein stability index runs as follows: under setting [1], 5.29 ± 0.49; under setting [2], 5.42 ± 0.3.
The like results for EIITQSPGRSSVASPRRLSNVSSS [MAP2] were, in that order, 3.43 ± 0.18 and 3.66 ± 0.2.
For EIYKRFLTRMTRVSEFLKVAEQVG [SNAP91], in that order: 2.44 ± 0.63 and 2.45 ± 0.24.
The like results for EKAAALERQLKVMASDHREALLDR [LRRC45] were, in that order, 4.41 ± 0.17 and 4.49 ± 0.46.
Consider EKPYGCSECGKAFPRKSELTEHQR [ZNF649], for which the protein stability index came out at 3.95 ± 0.49 under setting [1] and 4.44 ± 0.52 under setting [2].
Turning to ELAGVDTELLAERFYYQALSVAPQ [SMG5], the protein stability index came to 2.68 ± 0.25 under setting [1] and 2.88 ± 0.16 under setting [2].
Regarding ELHEECEGNHPSARKLTAQRRAST [NET1], the protein stability index is, setting by setting: under setting [1], 4.92 ± 0.21; under setting [2], 5.09 ± 0.15.
As for ELHPESGEEAVTLVEDMQRELGRL [ZNF263], the protein stability index by setting is: under setting [1], 4.88 ± 0.41; under setting [2], 5.13 ± 0.26.
For ELLCELGRPSMVWLSANPCPHCGD [PRAME], in that order: 2.08 ± 0.043 and 2.28 ± 0.31.
The like results for ELNKQVVSSSEQLQSCQAEIIELR [KRT34] were, in that order, 3.82 ± 0.33 and 4.04 ± 0.53.
For ELSRSRKLYGQRERVWALAQEKAA [FCHSD1], in that order: 3.04 ± 0.33 and 3.47 ± 0.22.
On to ELTATFTKFDRDGNRILDEKEQEK [PKD2L1], for which the protein stability index amounted to 5.38 ± 0.11 under setting [1] and 5.17 ± 0.18 under setting [2].
For ENANLQEYVEKETQEKKRLSRTNE [MTUS2], in that order: 5.33 ± 0.45 and 5.35 ± 0.18.
For ENCTLVTTFRGHTGGVTALCWDPV [WDFY2], in that order: 2.53 ± 0.32 and 2.38 ± 0.18.
For ENTCLLRGFSGGILAFLVLEAVAG [TSPAN10], in that order: 3.27 ± 0.15 and 2.58 ± 0.41.
Regarding EPEQTGADAAEDEEVDVTSVDPIA [RBBP5], the protein stability index is 5.64 ± 0.18 under setting [1] and 5.55 ± 0.33 under setting [2].
For the sequence EPMWSGSTMRRMALRPTAFSGCLN [EMID1], the protein stability index by setting is: under setting [1], 2.82 ± 0.27; under setting [2], 2.79 ± 0.16.
EPNTFSPANVDASVMFRKWRDSKG [UBE2R2] had a protein stability index under setting [1] of 4.16 ± 0.46 and a protein stability index under setting [2] of 4.4 ± 0.3.
For EPPEEPEQCPVIDSQAPAGSLDLV [SPDEF], in that order: 5.37 ± 0.17 and 5.51 ± 0.18.
For EPPPVKQELPPYNGFGLVEDSAQN [EFHC1], in that order: 5.15 ± 0.059 and 5.15 ± 0.066.
The like results for EPRQRRLLLLDLLALYTPVGAAGS [ANKRD9] were, in that order, 2.65 ± 0.57 and 2.44 ± 0.88.
On to EQNQEGDAAYRKALDLAREFLPQG [AUH], for which the protein stability index reads like this: under setting [1], 4.42 ± 0.19; under setting [2], 4.44 ± 0.37.
Regarding ERDIEIGFLPWLMNEVEKTMEYSM [RSPH3], the protein stability index amounted to 2.41 ± 0.46 under setting [1] and 2.42 ± 0.18 under setting [2].
Regarding ERELLGQDEETAMRKSLGEEELS [RSPH3], the protein stability index stood at 5.48 ± 0.4 under setting [3] and 5.575 ± 0.042 under setting [4].
Take ERERQPCGDGNTETHRAPDLVQWT [SOAT2]: the protein stability index was 4.92 ± 0.06 under setting [1] and 4.65 ± 0.24 under setting [2].
Regarding ERLVVLDYIIRNTDRGNDNWLIKY [PI4K2A], the protein stability index came to 2.2 ± 0.65 under setting [1] and 2.49 ± 0.65 under setting [2].
The like results for ESCEEKNQLILTASADRTVIVWDG [WDR41] were, in that order, 4.01 ± 0.085 and 3.79 ± 0.1.
For ESDSCVSFEAPLTPLIQQRARDSP [PSD2], in that order: 5.02 ± 0.16 and 4.92 ± 0.24.
As to ESGVSVSNSQPTNESHSIKAILKN [SLC29A1], the protein stability index is, setting by setting: under setting [1], 5.03 ± 0.53; under setting [2], 4.9 ± 0.46.
For ESKVKDILSKVQKNHVGKPLLKMD [FAM98B], in that order: 3.49 ± 0.17 and 3.79 ± 0.19.
The like results for ESRKSKRRNSEFEIFVDCDINREQ [TPH1] were, in that order, 4.85 ± 0.31 and 4.92 ± 0.59.
For ETIEGAPPLWAASAAGHLDVVRSL [FEM1A], in that order: 3.78 ± 0.16 and 3.72 ± 0.13.
For the sequence ETSRSHDLEAVVPQNGSETGWARK [ATP23], the protein stability index is, setting by setting: under setting [1], 4.95 ± 0.2; under setting [2], 5.21 ± 0.12.
Consider EVEEADGNKQWWFGGGCDLTPTYL [CPOX], for which the protein stability index is 3.43 ± 0.49 under setting [1] and 3.36 ± 0.39 under setting [2].
With EVEGTKPSATEMIWAVLAAFNKS [GOLPH3L], the protein stability index under setting [3] amounted to 2.4 ± 0.18 and the protein stability index under setting [4] was 2.4 ± 0.33.
Take EVEIVGVQEHARCVHPRGGVIQSV [C18orf25]: the protein stability index by setting is: under setting [1], 3.45 ± 0.35; under setting [2], 3.6 ± 0.31.
In the case of EVVNMAVIVPKEEGVISVSEDRTV [WDFY2], the protein stability index worked out at 4.04 ± 0.42 under setting [1] and 4.22 ± 0.34 under setting [2].
The like results for FACPSKTDFFKNIMNFIDIVAIIP [KCNA1] were, in that order, 3.29 ± 0.58 and 3.1 ± 0.49.
For FAELSVDMEKILEIIRVILKLYEQ [CCNC], in that order: 2.2 ± 0.12 and 2.69 ± 0.25.
On to FDDEEPRKFYVHIKPAPARAPACS [FCHO1], for which the protein stability index came out at 3.27 ± 0.14 under setting [1] and 3.29 ± 0.38 under setting [2].
Consider FDEPFLTRNVQSVSIIDTELKVKD [TRIP13], for which the protein stability index under setting [1] was 4.65 ± 0.19 and the protein stability index under setting [2] was found to be 4.49 ± 0.068.
Take FDGTAHLSSVEAYNIRTDSWTTVT [KLHL12]: the protein stability index amounted to 2.58 ± 0.38 under setting [1] and 2.62 ± 0.52 under setting [2].
Regarding FDTFIQKTKKLYIDSRARRNLGSI [SEC22B], the protein stability index by setting is: under setting [1], 2.48 ± 0.5; under setting [2], 2.22 ± 0.12.
The like results for FEPVKSFFKGLVEAVESTLQTPLD [TRIM14] were, in that order, 2.19 ± 0.2 and 2.4 ± 0.23.
For FEQGKWDVFSENLLADVKGARAAL [STX11], in that order: 2.67 ± 0.14 and 2.72 ± 0.45.
With FEQYCAWQLFLAHNIPLETIIPIL [INTS3], the protein stability index reads like this: under setting [1], 3.27 ± 0.74; under setting [2], 2.85 ± 0.34.
The like results for FFFRHGHRGLLTMQLKSPMPSSTT [SPAG8] were, in that order, 2.14 ± 0.26 and 2 ± 0.23.
The like results for FFVPLSYLLMVTVILLPYVSKVTG [TMEM175] were, in that order, 3.33 ± 0.26 and 3.11 ± 0.31.
In the case of FGSRSLYSLGGVRSLNVASGSGKS [KRT71], the protein stability index came to 2.35 ± 0.77 under setting [1] and 3.01 ± 0.82 under setting [2].
Take FKDYIQERSDPVEQGKPVIPAAVL [ETS2]: the protein stability index stood at 4.08 ± 0.2 under setting [1] and 3.97 ± 0.27 under setting [2].
The like results for FLAENSAFPKMALQAKQDGKKDVS [LCOR] were, in that order, 4.23 ± 0.29 and 4.36 ± 0.36.
The like results for FLEQRPQSPTLEFLLRNSQRTVGQ [EDARADD] were, in that order, 3.15 ± 0.32 and 3.43 ± 0.34.
Sequence FLLSVYAPGSSVEYQCQNLYQLEG [CFHR2] had a protein stability index under setting [1] of 2.75 ± 0.48 and a protein stability index under setting [2] of 2.52 ± 0.44.
The like results for FLPGGDMMTLLMKKDTLTEEETQF [STK38L] were, in that order, 2.89 ± 0.6 and 3.44 ± 0.51.
FMLRYLYSQKESGHSNWLGDPEEP [ATL3]: the protein stability index stood at 2.75 ± 0.33 under setting [1] and 2.06 ± 0.48 under setting [2].
The like results for FNGKGKKIRKPRTIYCSLQLQALN [DLX1] were, in that order, 2.38 ± 0.5 and 2.75 ± 0.31.
The like results for FNIVYIYTSELYPTVIRNVGLGTC [SLC22A15] were, in that order, 3.07 ± 0.23 and 3.07 ± 0.62.
On to FNMWGFGRVSKQASQPVKKQQENA [WDR41], for which the protein stability index is 3.12 ± 0.25 under setting [1] and 3.54 ± 0.18 under setting [2].
